Changes are numbered by the printed parent chain. Names and notes keep the numbering of the source.
What was measured:
[1] = molecular target: BMP-9 monomer (cysteinylated BMP-9 growth factor) (human) (UniProt Q9UK05)
[2] = molecular target: BMP-9 disulfide-linked dimer (wild-type growth factor) (human) (UniProt Q9UK05)
[3] = molecular target: T1, Pro-(X)-BMP-10 S385G, R353K, O95393; test: SDS-PAGE densitometry; details: chain shown with the change; IMAC column purified Pro-BMP-10
T1 chain: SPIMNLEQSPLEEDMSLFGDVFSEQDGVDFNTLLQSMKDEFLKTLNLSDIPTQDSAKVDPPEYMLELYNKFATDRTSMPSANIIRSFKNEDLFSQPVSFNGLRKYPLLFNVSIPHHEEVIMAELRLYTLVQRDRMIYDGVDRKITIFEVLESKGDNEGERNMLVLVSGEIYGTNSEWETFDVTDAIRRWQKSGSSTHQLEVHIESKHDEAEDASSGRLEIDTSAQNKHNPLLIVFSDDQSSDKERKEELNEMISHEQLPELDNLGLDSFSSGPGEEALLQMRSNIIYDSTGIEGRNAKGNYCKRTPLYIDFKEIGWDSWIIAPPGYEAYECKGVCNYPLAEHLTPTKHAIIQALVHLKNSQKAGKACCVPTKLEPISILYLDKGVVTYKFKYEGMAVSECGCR

[4] = molecular target: T2, Pro-(X)-BMP-10 R353K, O95393; test: SDS-PAGE densitometry; details: chain shown with the change; IMAC column purified Pro-BMP-10
T2 chain: T1 chain with G364S

[5] = molecular target: T3, Pro-(X)-BMP-10 S385G, O95393; test: SDS-PAGE densitometry; details: chain shown with the change; IMAC column purified Pro-BMP-10
T3 chain: T1 chain with K332R

[6] = molecular target: the molecule itself; test: non-reducing SDS-PAGE with densitometry; IMAC-purified pro-proteins from expi293 conditioned medium, non-reduced against reduced; bands of disulfide-linked dimer and monomer
[7] = molecular target: BMP-10 monomer (cysteinylated BMP-10 growth factor) (human) (UniProt O95393)
[8] = molecular target: BMP-10 disulfide-linked dimer (growth factor) (human) (UniProt O95393)
[9] = molecular target: the molecule itself; test: crystal structure; BMP-9 disulfide-linked dimers (wild type and mutants) at neutral pH; 1 M NaCl, glycerol, 0.1 M HEPES pH 7.4; multi-crystal data split into fractions

“BMP-9 monomer (cysteinylated BMP-9 growth factor) (from UniProt Q9UK05 320-429) (ligand)” gave an EC50 of pSMAD1/5/9 (western blot) in serum-starved HUVECs treated for 45 min with BMP-9 monomer, 0.01-54 ng/mL [1] of 124 pM.

For “BMP-9 disulfide-linked dimer (wild-type growth factor) (from UniProt Q9UK05 320-429) (ligand)”, the EC50 of pSMAD1/5/9 (western blot) in serum-starved HUVECs treated for 45 min with BMP-9 disulfide-linked dimer, 0.001-1.62 ng/mL [2] was 3.3 pM.

B1: Pro-(X)-BMP-10, O95393 S385G; R353K (protein)
chain: T1 chain
For B1, the other: disulfide-linked dimer over monomer ratio [3] was 0.41.

B2: Pro-(X)-BMP-10, O95393 R353K (protein)
chain: T1 chain with G364S
Molecule B2 has an other: disulfide-linked dimer over monomer ratio [4] of 0.9.

B3: Pro-(X)-BMP-10, O95393 S385G (protein)
chain: T1 chain with K332R
For B3, the other: disulfide-linked dimer over monomer ratio [5] was 0.42.

B4: Pro-(fr)-BMP-10 (natural protein, human, UniProt O95393 22-424, looked up)
chain: T1 chain with G291A, I292R, E293I, G294R, K332R, G364S
notes: Human proBMP10 residues 22-424 with the natural furin site; Partially processed by furin: the sample holds unprocessed pro-protein, prodomain and growth factor (12 and 24 kDa); also called Pro-BMP-10 with unmodified furin processing site; wild-type BMP-10; source: expi293 (suspension HEK293), secreted; purified from conditioned medium by IMAC; not shown: 8xHis, N-terminal, kept
B4: binds [6].

B5: Pro-(fr)-Act-A (natural protein, human, UniProt P08476 27-426, looked up)
chain: EGHSAAPDCPSCALAALPKDVPNSQPEMVEAVKKHILNMLHLKKRPDVTQPVPKAALLNAIRKLHVGKVGENGYVEIEDDIGRRAEMNELMEQTSEIITFAESGTARKTLHFEISKEGSDLSVVERAEVWLFLKVPKANRTRTKVTIRLFQQQKHPQGSLDTGEEAEEVGLKGERSELLLSEKVVDARKSTWHVFPVSSSIQRLLDQGKSSLDVRIACEQCQESGASLVLLGKKKKKEEEGEGKKKGGGEGGAGADEEKEQSHRPFLMLQARQSEDHPHRRRRRGLECDGKVNICCKKQFFVSFKDIGWNDWIIAPSGYHANYCEGECPSHIAGTSGSSLSFHSTVINHYRMRGHSPFANLKSCCVPTKLRPMSMLYYDDGQNIIKKDIQNMIVEECGCS
notes: Human proINHBA residues 27-426; The results call it N-terminally histidine-tagged and purified by that tag; the methods say 'with no tag or processing site'; Furin processing incomplete; also called Pro-Activin-A; Pro-Act-A; source: expi293 (suspension HEK293), secreted; purified from conditioned medium by the histidine tag (IMAC); not shown: His tag, N-terminal, kept
B5: binds [6].

B6: BMP-10 monomer (cysteinylated BMP-10 growth factor) (ligand)
chain: NAKGNYCKRTPLYIDFKEIGWDSWIIAPPGYEAYECRGVCNYPLAEHLTPTKHAIIQALVHLKNSQKASKACCVPTKLEPISILYLDKGVVTYKFKYEGMAVSECGCR
modifications: cysteinylated (+119 Da; the paper places it on the interchain cysteine)
B6 was tested, and the EC50 of pSMAD1/5/9 (western blot) in serum-starved HUVECs treated for 45 min with BMP-10 monomer, 0.01-54 ng/mL [7] was 164 pM.

B7: BMP-10 disulfide-linked dimer (growth factor) (ligand)
chain: B6 chain
modifications: interchain disulfide
For B7, the EC50 of pSMAD1/5/9 (western blot) in serum-starved HUVECs treated for 45 min with BMP-10 disulfide-linked dimer, 0.001-1.62 ng/mL [8] was 5.9 pM.

B8: Pro-(fr)-TGF-β2 (natural protein, human, UniProt P61812-1 19-414, looked up)
chain: LSLSTSSTLDMDQFMRKRIEAIRGQILSKLKLTSPPEDYPEPEEVPPEVISIYNSTRDLLQEKASRRAAACERERSDEEYYAKEVYKIDMPPFFPSENAIPPTFYRPYFRIVRFDVSAMEKNASNLVKAEFRVFRLQNPKARVAEQRIELYQILKSKDLTSPTQRYIDSKVVKTRAEGEWLSFDVTDAVHEWLHHKDRNLGFKISLHCPCCTFVPSNNYIIPNKSEELEARFAGIDGTSTYTSGDQKTIKSTRKKNSGKTPHLLLMLLPSYRLESQQTNRRKKRALDAAYCFRNVQDNCCLRPLYIDFKRDLGWKWIHEPKGYNANFCAGACPYLWSSDTQHSRVLSLYNTINPEASASPCCVSQDLEPLTILYYIGKTPKIEQLSNMIVKSCKCS
notes: Human proTGF-β2 residues 19-414; Behind the mouse Ig signal peptide and the 8xHis tag, no processing site after the tag; Furin processing incomplete; also called Pro-TGF-β2; source: expi293 (suspension HEK293), secreted; purified from conditioned medium by the histidine tag (IMAC); not shown: 8xHis, N-terminal, kept
B8: binds [6].

B9: Pro-(fr)-BMP-9 (natural protein, human, UniProt Q9UK05 23-429, looked up)
chain: KPLQSWGRGSAGGNAHSPLGVPGGGLPEHTFNLKMFLENVKVDFLRSLNLSGVPSQDKTRVEPPQYMIDLYNRYTSDKSTTPASNIVRSFSMEDAISITATEDFPFQKHILLFNISIPRHEQITRAELRLYVSCQNHVDPSHDLKGSVVIYDVLDGTDAWDSATETKTFLVSQDIQDEGWETLEVSSAVKRWVRSDSTKSKNKLEVTVESHRKGCDTLDISVPPGSRNLPFFVVFSNDHSSGTKETRLELREMISHEQESVLKKLSKDGSTEAGESSHEEDTDGHVAAGSTLARRKRSSGAGSHCQKTSLRVNFEDIGWDSWIIAPKEYEAYECKGGCFFPLADDVTPTKHAIVQTLVHLKFPTKVGKACCVPTKLSPISVLYKDDMGVPTLKYHYEGMSVAECGCR
notes: Human proBMP9 residues 23-429 with the natural furin site; Partially processed by furin: the sample holds unprocessed pro-protein, prodomain and growth factor (12 and 24 kDa); also called Pro-BMP-9 with unmodified furin processing site; wild-type BMP-9; source: expi293 (suspension HEK293), secreted; purified from conditioned medium by IMAC; not shown: 8xHis, N-terminal, kept
B9: binds [6].

B10: Pro-(X)-BMP-9 G389S (natural protein, human, UniProt Q9UK05 23-429, looked up)
chain: B9 chain with R294I, R295E, K296G, G367S
notes: Human proBMP9 residues 23-429; mutant based on Pro-(X)-BMP-9; also called G389S BMP-9; source: expi293 (suspension HEK293), secreted; purified from conditioned medium by IMAC; not shown: 8xHis, N-terminal, kept
B10: binds [6].

B11: Pro-(X)-BMP-9 G389S, K357R (natural protein, human, UniProt Q9UK05 23-429, looked up)
chain: B9 chain with R294I, R295E, K296G, K335R, G367S
notes: Human proBMP9 residues 23-429; mutant based on Pro-(X)-BMP-9; also called G389S, K357R BMP-9; BMP-9 double mutant; source: expi293 (suspension HEK293), secreted; purified from conditioned medium by IMAC; not shown: 8xHis, N-terminal, kept
B11: binds [6].

B12: Pro-(X)-BMP-9 K357R (natural protein, human, UniProt Q9UK05 23-429, looked up)
chain: B9 chain with R294I, R295E, K296G, K335R
notes: Human proBMP9 residues 23-429; mutant based on Pro-(X)-BMP-9; also called K357R BMP-9; source: expi293 (suspension HEK293), secreted; purified from conditioned medium by IMAC; not shown: 8xHis, N-terminal, kept
B12: binds [6].

B13: Pro-(X)-BMP-9 (natural protein, human, UniProt Q9UK05 23-429, looked up)
chain: B9 chain with R294I, R295E, K296G
notes: Human proBMP9 residues 23-429; Behind the rat serum albumin signal peptide, the 8xHis tag and a factor Xa site (IEGR); Secreted unprocessed as a mixture of disulfide-linked dimers and monomers; also called Pro-BMP-9 with the furin site replaced by a factor X site; Pro-BMP-9 wild-type; source: expi293 (suspension HEK293), secreted; purified from conditioned medium by IMAC; not shown: 8xHis, …
B13: binds [6].

B14: BMP-9 G389S, K357R disulfide-linked dimer (ligand, human, UniProt Q9UK05 320-429, looked up)
chain: SSGAGSHCQKTSLRVNFEDIGWDSWIIAPKEYEAYECRGGCFFPLADDVTPTKHAIVQTLVHLKFPTKVSKACCVPTKLSPISVLYKDDMGVPTLKYHYEGMSVAECGCR
modifications: interchain disulfide Cys-392 to Cys-392'
notes: Human BMP-9 growth factor released by factor Xa from the G389S, K357R mutant of Pro-(X)-BMP-9 (proBMP9 residues 23-429, A321S, RRKR replaced by IEGR); also called BMP-9 double-mutant; BMP-9 G389S K357R Dimer; source: expi293 (suspension HEK293), secreted as Pro-(X)-BMP-9 mutant; IMAC, factor Xa digestion, C18 reverse phase
B14: binds [9].

B15: BMP-9 G389S disulfide-linked dimer (ligand, human, UniProt Q9UK05 320-429, looked up)
chain: B14 chain with R38K
modifications: interchain disulfide Cys-392 to Cys-392'
notes: Human BMP-9 growth factor released by factor Xa from the G389S mutant of Pro-(X)-BMP-9 (proBMP9 residues 23-429, A321S, RRKR replaced by IEGR); also called BMP-9 G389S Dimer; source: expi293 (suspension HEK293), secreted as Pro-(X)-BMP-9 mutant; IMAC, factor Xa digestion, C18 reverse phase
B15: binds [9].

Source: article PMC12148503, “Molecular Basis of Interchain Disulfide Bond Formation in BMP-9 and BMP-10” (Journal of molecular biology, 2025)
